Data on 14 molecules can be found in paper PMC3653948, “PDZ Domain-Mediated Interactions of G Protein-Coupled Receptors with Postsynaptic Density Protein 95: Quantitative Characterization of Interactions” (PLoS ONE, 2013).

What all share (details): both partners purified
For assay [1], the target named is T1, PSD-95 PDZ2 (aa 155-249) (UniProt P78352 155-249).
T1 construct: postsynaptic density protein 95 (PSD-95), PDZ2, aa 155-249
The experiment in a line: SPR; PDZ domain immobilised by amine coupling (CM5 for PDZ1 and PDZ2, CM4 for PDZ3), peptides injected; Biacore X100, 25.0°C, HBS-EP+ (10 mM HEPES pH 7.4, 150 mM NaCl, 3 mM EDTA, 0.05% Surfactant P-20); 1 mM DTT for peptides with a cysteine; Kd from steady-state responses, 1:1 model with a linear component.

The target in assay [2] is T2, PSD-95 PDZ1 (aa 61-151) (UniProt P78352 61-151).
T2 construct: postsynaptic density protein 95 (PSD-95), PDZ1, aa 61-151
Described as above.

Assay [3] has as its target T3, PSD-95 PDZ3 (aa 309-401) (UniProt P78352 309-401).
T3 construct: postsynaptic density protein 95 (PSD-95), PDZ3, aa 309-401
The description is as above.

For assay [4], the target named is T4, PSD-95 PDZ3 (aa 309–401) (UniProt P78352 309-401).
T4 construct: postsynaptic density protein 95 (PSD-95), PDZ3, aa 309–401
The experiment in a line: fluorescence polarisation; competition: 25 nM Cy5-labeled probe and a constant concentration of PDZ protein corresponding to the K d of the probe, twofold dilution series of unlabeled peptide (typically 1–512 µM); 10 mM HEPES pH 7.4, 150 mM NaCl, 1% BSA; room temperature; K i calculated from the IC50.

Assay [5] concerns the target PSD-95 PDZ1 (aa 61–151) (UniProt P78352 61-151). The assay is described as above.
The target of assay [6] is T5, PSD-95 PDZ2 (aa 155–249) (UniProt P78352 155-249).
T5 construct: postsynaptic density protein 95 (PSD-95), PDZ2, aa 155–249; also called isolated PDZ2
The assay is described as above.

For assay [7], the target named is T1, PSD-95 PDZ2 (aa 155-249). The experiment in a line: fluorescence polarisation; competition: 25 nM Cy5-labeled probe (Cy5-KIF1Bα for PDZ1, Cy5-GluN2B for PDZ2, Cy5-CRIPT for PDZ3), constant PDZ protein at the probe's Kd, twofold dilution series of unlabeled peptide (typically 1–512 µM); 10 mM HEPES pH 7.4, 150 mM NaCl, 1% BSA, room temperature; Ki calculated from IC50.

Assay [8] addresses T2, PSD-95 PDZ1 (aa 61-151). Described as above.
Assay [9] deals with T3, PSD-95 PDZ3 (aa 309-401). The assay is described as above.

Ends that are not written are not given here.

B1: BAI1 C-tail peptide (human) (peptide)
peptide: YDDRQDIIDLQTEV
notes: N-terminal linker; YDDR because the C-tail has no Tyr or Trp, by the rule of the methods; BAI1 receptor, human, 10 C-terminal aa; also called BAI1 receptor; source: synthetic peptide (Schafer-N)
Regarding B1, the Kd in assay [1] came to 74 µM; in assay [2] it was 120 µM; in assay [3] it was 2400 µM.

As to RNCSTNDSLL-OH (not fully specified) [β2-adrenergic receptor (β2AR) C-tail peptide, human], the Ki was above 1000 µM in assay [4], above 1000 µM in assay [5] and 720 µM in assay [6].

B2: SSTR1 C-tail peptide (mouse) (peptide)
peptide: YDDRGTCASRISTL
notes: N-terminal linker; YDDR because the C-tail has no Tyr or Trp, by the rule of the methods; somatostatin receptor 1, mouse, 10 C-terminal aa; also called mSSTR1; source: synthetic peptide (Schafer-N)
In assay [2], B2 displayed a Kd of 270 µM.

B3: 5-HTR2C C-tail peptide (human) (peptide)
peptide: YDDRSVVSERISSV
notes: N-terminal linker; YDDR because the C-tail has no Tyr or Trp, by the rule of the methods; 5-hydroxytryptamine receptor 2C, human, 10 C-terminal aa; source: synthetic peptide (Schafer-N)
In the case of B3, the Kd in assay [1] came out at 62 µM; in assay [2] it was 160 µM; in assay [3], 780 µM.

B4: KIF1Bα C-tail peptide (human), unlabeled (peptide)
peptide: YDDRNLKAGRETTV
notes: N-terminal linker (solubility, concentration determination); YDDR because the C-tail has no Tyr or Trp, by the rule of the methods; source: synthetic peptide (Schafer-N)
Regarding B4, the dissociation constant Kd in assay [1] turned out to be 1.1 µM; in assay [2] it was 2.2 µM. Also, the values for the Ki in assay [7], in assay [8] and in [9] were 3.8 µM, 7 µM and 14 µM, respectively.

B5: β1AR C-tail peptide (human) (peptide)
peptide: YDDRRPGFASESKV
notes: N-terminal linker; YDDR because the C-tail has no Tyr or Trp, by the rule of the methods; β1-adrenergic receptor, human, 10 C-terminal aa; also called β1-adrenergic receptor; source: synthetic peptide (Schafer-N)
In the case of B5, the Kd in [1] stood at 180 µM; in [3], 400 µM.

Regarding KYVSYNNLVI-OH (not fully specified) [metabotropic glutamate receptor mGlu7(a) C-tail peptide, human], the Ki in [4] is above 1000 µM; in [5], 610 µM; in assay [6] it was above 1000 µM.

B6: GluN2B C-tail peptide (human), unlabeled (peptide)
peptide: YEKLSSIESDV
notes: No YDDR/DDR linker is told for this peptide; also called NR2B
Molecule B6 displayed an equilibrium dissociation constant (Kd) in assay [1] of 1.4 µM. The inhibitory constant (Ki) in assay [7] is 5.5 µM; in [8], 29 µM; in assay [9], above 1000 µM.

B7: β2AR C-tail peptide (human) (peptide)
peptide: YDDRRNCSTNDSLL
notes: N-terminal linker; YDDR because the C-tail has no Tyr or Trp, by the rule of the methods; β2-adrenergic receptor, human, 10 C-terminal aa; source: synthetic peptide (Schafer-N)
On to B7, for which the dissociation constant (Kd) in [1] was found to be 2090 µM.

B8: 5-HTR2A C-tail peptide (human) (peptide)
peptide: YDDRDGVNEKVSCV
notes: N-terminal linker; YDDR because the C-tail has no Tyr or Trp, by the rule of the methods; 5-hydroxytryptamine receptor 2A, human, 10 C-terminal aa; also called 5-hydroxytryptamine receptor 2A; source: synthetic peptide (Schafer-N)
On to B8, for which the results for the Kd in assay [1] and in assay [2] were 110 µM and 630 µM, respectively.

B9: SSTR1 C-tail peptide (human) (peptide)
peptide: YDDRGTCTSRITTL
notes: N-terminal linker; YDDR because the C-tail has no Tyr or Trp, by the rule of the methods; somatostatin receptor 1, human, 10 C-terminal aa; also called hSSTR1; source: synthetic peptide (Schafer-N)
For B9, the Kd in assay [1] is 76 µM; in assay [2], 84 µM.

B10: SSTR3 C-tail peptide (human) (peptide)
peptide: DDRKSSTMRISYL
notes: N-terminal linker; DDR (Tyr omitted) because the C-tail contains Tyr, by the rule of the methods; somatostatin receptor 3, human, 10 C-terminal aa; source: synthetic peptide (Schafer-N)
In [3], B10 yielded a Kd of 240 µM.

As for RDYKQSSSTL-OH (not fully specified) [metabotropic glutamate receptor mGlu1(a) C-tail peptide, human], the Ki in assay [4] is above 1000 µM; in [5] it was 830 µM; in [6], above 1000 µM.

B11: CRIPT C-tail peptide (human), unlabeled (peptide)
peptide: LDTKNYKQTSV
notes: No YDDR/DDR linker is told for this peptide
B11 returned a dissociation constant Kd in assay [3] of 1.5 µM. In addition, the inhibitory constant (Ki) in assay [9] is 2.9 µM.
